Results on eight molecules are retold here after patent US20240247080A1, “GLP1/GIP/NPY2 RECEPTOR TRIPLE AGONISTS” (Boehringer Ingelheim International GmbH, priority 2022, published 2024).

What all share (test): cell-based or functional assay
One experiment deals with human GLP-1 receptor (human, UniProt P43220 24-463).
Experiment [1] addresses T1, human neuropeptide Y2 receptor (human, UniProt P49146 1-381).
T1 sequence (looked up): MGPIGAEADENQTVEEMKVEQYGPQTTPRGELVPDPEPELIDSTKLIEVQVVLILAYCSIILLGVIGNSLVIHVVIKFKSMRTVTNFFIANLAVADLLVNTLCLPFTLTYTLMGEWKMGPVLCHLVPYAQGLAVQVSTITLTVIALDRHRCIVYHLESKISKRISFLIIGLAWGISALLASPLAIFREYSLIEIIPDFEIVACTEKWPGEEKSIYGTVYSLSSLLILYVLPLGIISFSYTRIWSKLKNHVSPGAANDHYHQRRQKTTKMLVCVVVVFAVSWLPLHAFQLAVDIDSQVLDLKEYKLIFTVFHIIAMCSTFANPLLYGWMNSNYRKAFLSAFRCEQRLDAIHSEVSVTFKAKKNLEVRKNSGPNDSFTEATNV

A further experiment addresses T2, human GIP receptor (human, UniProt P48546 22-466).
T2 sequence (looked up): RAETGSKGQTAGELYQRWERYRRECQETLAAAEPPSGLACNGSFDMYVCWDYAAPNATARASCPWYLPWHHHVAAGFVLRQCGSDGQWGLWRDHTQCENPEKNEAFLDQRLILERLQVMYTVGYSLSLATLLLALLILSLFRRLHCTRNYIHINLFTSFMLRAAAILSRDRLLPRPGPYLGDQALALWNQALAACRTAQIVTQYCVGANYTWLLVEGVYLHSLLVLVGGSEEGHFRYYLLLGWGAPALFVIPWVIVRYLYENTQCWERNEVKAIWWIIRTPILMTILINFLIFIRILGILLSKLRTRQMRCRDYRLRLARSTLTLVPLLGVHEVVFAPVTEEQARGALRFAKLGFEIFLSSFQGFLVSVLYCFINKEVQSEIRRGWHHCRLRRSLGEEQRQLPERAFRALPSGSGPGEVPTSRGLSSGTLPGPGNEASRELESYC

Starred links: 1 amine or outer side, 2 acyl side, 3 side chain; linkers in the order of their positions; H or OH if unused. Non-standard residues stand in square brackets, D forms with d. Groups on a side chain read outwards from the residue. No end group written: not given here. *: point of attachment. C20 diacid = O=C(O)CCCCCCCCCCCCCCCCCCC(=O)*; C18 diacid = O=C(O)CCCCCCCCCCCCCCCCC(=O)*; γGlu = O=C(O)[C@H](CCC(=O)[*:2])N[*:1]; εLys = N[C@@H](CCCCN[*:1])C(=O)[*:2]; AEEA = NCCOCCOCC(=O)O; Aib = CC(C)(N)C(=O)O

Take Y[Aib]EGTFTSDYSI[Aib]LEKQAQ[Aib]AFVEWLIK([εLys-γGlu-γGlu-γGlu-γGlu-γGlu-γGlu-γGlu-C20 diacid])GGPSEGASLRHYYNWLTRQRY-NH2 (also: TFA salt) [Compound 288]: in the experiment with human GLP-1 receptor, the “EC50 hGLP1R 0.5% hP (CreLuc)” value was found to be 0.17 nM and the “EC50 hGLP1R 100% hP (CreLuc)” value was 3.21 nM. Besides, in experiment [1], the “EC50 hNPY2R 0.5% hP (CreLuc)” value worked out at 14.3 nM and the “EC50 hNPY2R 100% hP (CreLuc)” value came out at 36.8 nM. In the experiment with human GIP receptor, the “EC50 hGIPR 0.5% hP (CreLuc)” value was 0.51 nM and the “EC50 hGIPR 100% hP (CreLuc)” value was 2.43 nM.

B1: Compound 289 (peptide)
peptide: YXEGTFTSDYSIXLEKQAQXAFVEWLIKGGPSEGASLRHYYNWLTRQRY
modifications: Aib at 2, 13, 20; K28 side chain acylated with C20DA-gGlu-gGlu-gGlu-gGlu-gGlu; C-terminal amide (NH2)
Take B1: in the experiment with human GLP-1 receptor, the “EC50 hGLP1R 0.5% hP (CreLuc)” value worked out at 0.14 nM and the “EC50 hGLP1R 100% hP (CreLuc)” value came out at 3.51 nM. Besides, in experiment [1], the “EC50 hNPY2R 0.5% hP (CreLuc)” value is 11.1 nM and the “EC50 hNPY2R 100% hP (CreLuc)” value was 56.3 nM. In the experiment with human GIP receptor, the “EC50 hGIPR 0.5% hP (CreLuc)” value is 0.7 nM and the “EC50 hGIPR 100% hP (CreLuc)” value amounted to 1.75 nM.

B2: Compound 293 (peptide)
peptide: B1 peptide
modifications: Aib at 2, 13, 20; K28 side chain acylated with C18DA-gGlu-Glu-gGlu-gGlu-gGlu-gGlu-eLys (so in the source); C-terminal amide (NH2)
B2: in the experiment with human GLP-1 receptor, the “EC50 hGLP1R 0.5% hP (CreLuc)” value is 0.18 nM and the “EC50 hGLP1R 100% hP (CreLuc)” value worked out at 4.21 nM. In addition, in experiment [1], the “EC50 hNPY2R 0.5% hP (CreLuc)” value came out at 13.6 nM and the “EC50 hNPY2R 100% hP (CreLuc)” value worked out at 37.5 nM. In the experiment with human GIP receptor, the “EC50 hGIPR 0.5% hP (CreLuc)” value came out at 0.26 nM and the “EC50 hGIPR 100% hP (CreLuc)” value was 1.33 nM.

B3: Compound 292 (peptide)
peptide: B1 peptide
modifications: Aib at 2, 13, 20; K28 side chain acylated with C18DA-gGlu-gGlu-gGlu-gGlu-gGlu; C-terminal amide (NH2)
Consider B3, for which, in the experiment with human GLP-1 receptor, the “EC50 hGLP1R 0.5% hP (CreLuc)” value is 0.13 nM and the “EC50 hGLP1R 100% hP (CreLuc)” value amounted to 5.01 nM. In experiment [1], the “EC50 hNPY2R 0.5% hP (CreLuc)” value turned out to be 19.9 nM and the “EC50 hNPY2R 100% hP (CreLuc)” value is 70 nM. Further, in the experiment with human GIP receptor, the “EC50 hGIPR 0.5% hP (CreLuc)” value was found to be 0.16 nM and the “EC50 hGIPR 100% hP (CreLuc)” value turned out to be 2.46 nM.

For Y[Aib]EGTFTSDYSI[Aib]LEKQAQ[Aib]AFIEWLIK([γGlu-γGlu-γGlu-γGlu-C20 diacid])GGPSEGASLRHYYNWLTRQRY-NH2 (also: TFA salt) [Compound 283], in the experiment with human GLP-1 receptor, the “EC50 hGLP1R 0.5% hP (CreLuc)” value was 0.13 nM and the “EC50 hGLP1R 100% hP (CreLuc)” value came to 3.86 nM. In addition, in experiment [1], the “EC50 hNPY2R 0.5% hP (CreLuc)” value was 14.7 nM and the “EC50 hNPY2R 100% hP (CreLuc)” value turned out to be 104 nM. In the experiment with human GIP receptor, the “EC50 hGIPR 0.5% hP (CreLuc)” value turned out to be 0.23 nM and the “EC50 hGIPR 100% hP (CreLuc)” value stood at 1.86 nM.

As for Y[Aib]EGTFTSDYSI[Aib]LEKQAQ[Aib]AFVEWLIKGGPSEGASLRHYYNWLTRQRY-NH2 (not fully specified (residue 28); also: TFA salt) [Compound 295], in the experiment with human GLP-1 receptor, the “EC50 hGLP1R 0.5% hP (CreLuc)” value came out at 0.14 nM and the “EC50 hGLP1R 100% hP (CreLuc)” value was 3.53 nM. Further, in experiment [1], the “EC50 hNPY2R 0.5% hP (CreLuc)” value amounted to 10.9 nM and the “EC50 hNPY2R 100% hP (CreLuc)” value was 30.2 nM. For the same molecule, in the experiment with human GIP receptor, the “EC50 hGIPR 0.5% hP (CreLuc)” value amounted to 0.3 nM and the “EC50 hGIPR 100% hP (CreLuc)” value came to 0.98 nM.

Y[Aib]EGTFTSDYSI[Aib]LEKQAQ[Aib]AFVEWLIKGGPSEGASLRHYYNWLTRQRY-NH2 (not fully specified (residue 28); also: TFA salt) [Compound 286]: in the experiment with human GLP-1 receptor, the “EC50 hGLP1R 0.5% hP (CreLuc)” value was determined as 0.27 nM and the “EC50 hGLP1R 100% hP (CreLuc)” value stood at 5.97 nM. In experiment [1], the “EC50 hNPY2R 0.5% hP (CreLuc)” value came to 15.7 nM and the “EC50 hNPY2R 100% hP (CreLuc)” value stood at 43.4 nM. Further, in the experiment with human GIP receptor, the “EC50 hGIPR 0.5% hP (CreLuc)” value was 0.42 nM and the “EC50 hGIPR 100% hP (CreLuc)” value is 2.03 nM.

Regarding Y[Aib]EGTFTSDYSI[Aib]LEKQAQ[Aib]EFVEWLIK([AEEA-AEEA-γGlu-C18 diacid])GGPSEGASLRHYYNWLTRQRY-NH2 (also: TFA salt) [Compound 282], in the experiment with human GLP-1 receptor, the “EC50 hGLP1R 0.5% hP (CreLuc)” value worked out at 0.51 nM and the “EC50 hGLP1R 100% hP (CreLuc)” value was determined as 24.6 nM. In experiment [1], the “EC50 hNPY2R 0.5% hP (CreLuc)” value came to 17.3 nM and the “EC50 hNPY2R 100% hP (CreLuc)” value amounted to 71.4 nM. Further, in the experiment with human GIP receptor, the “EC50 hGIPR 0.5% hP (CreLuc)” value was found to be 0.17 nM and the “EC50 hGIPR 100% hP (CreLuc)” value was 1.03 nM.
